This experiment concerns the target WASP GBD (GTPase binding domain, residues 242-310) (UniProt P42768). Kind of experiment: NMR titration.

Chain of EspFU R5 (five-repeat fragment) (P0DJ88 80-314): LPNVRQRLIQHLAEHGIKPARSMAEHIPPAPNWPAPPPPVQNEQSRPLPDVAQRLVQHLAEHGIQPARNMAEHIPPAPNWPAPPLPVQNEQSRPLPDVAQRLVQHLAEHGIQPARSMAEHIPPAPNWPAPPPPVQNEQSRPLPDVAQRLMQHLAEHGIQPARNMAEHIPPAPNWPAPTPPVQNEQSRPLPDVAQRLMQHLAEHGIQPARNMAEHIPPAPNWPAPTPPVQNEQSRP
Chain of WASP GBD (GTPase binding domain, residues 242-310) (P42768 242-310): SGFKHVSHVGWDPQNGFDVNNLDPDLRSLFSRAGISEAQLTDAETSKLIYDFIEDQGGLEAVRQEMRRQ

For orientation: stoichiometry N means the number of molecules, sites or subunits per partner or assembly. In the case of “EspFU R5 (five-repeat fragment) (from UniProt P0DJ88 80-314) (domain or fragment)”, the stoichiometry N is 0.2 EspFU:GBD.

The record behind these values is publication PMC2719906.
